Measured values from the supplement of paper PMC5998384.

What was measured:
HeLa Kyoto [1] = experiment: solubility in G1/S (NP-40 vs SDS abundance) (log2 ratio); higher = more soluble; settings: cell cycle stage: G1/S
HeLa Kyoto [2] = experiment: melting temperature (median over replicates), in situ; higher = more thermally stable
HeLa Kyoto [3] = experiment: solubility change mitosis vs G1/S (difference of NP-40 vs SDS log2 ratios) (log2 ratio difference); higher = more soluble in mitosis
HeLa Kyoto [4] = experiment: thermal stability score vs G1/S (z-score of summed log2 fold changes over temperatures); higher = more thermally stable than in G1/S
[5] = cell cycle stage: early G1 (4.5 h after nocodazole release)
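Throughout, for melting temperature (median over replicates), in situ: HeLa Kyoto cells synchronized by double thymidine or nocodazole block, proteins quantified by TMT10plex mass spectrometry, three independent biological replicates.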
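Throughout, for solubility change mitosis vs G1/S (difference of NP-40 vs SDS log2 ratios): synchronized HeLa Kyoto cells (double thymidine block for G1/S, nocodazole release for mitosis), protein amounts in NP-40 versus SDS lysates quantified by mass spectrometry, three biological replicates.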
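Throughout, for solubility in G1/S (NP-40 vs SDS abundance): HeLa Kyoto cells arrested at G1/S by double thymidine block, proteins quantified by TMT10plex mass spectrometry in mild NP-40 versus SDS extracts, three biological replicates.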
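Throughout, for thermal stability score vs G1/S (z-score of summed log2 fold changes over temperatures): synchronized HeLa Kyoto cells, proteins quantified by TMT10plex mass spectrometry, three biological replicates, mitosis taken 0.5 h after nocodazole release, G1/S directly after double thymidine block.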

Substance	solubility in G1/S (log2) (HeLa Kyoto [1])	melting temperature (HeLa Kyoto [2]; cell cycle stage: G1/S) [°C]	melting temperature (HeLa Kyoto [2]; cell cycle stage: mitosis) [°C]	solubility change mitosis (log2) (HeLa Kyoto [3])	thermal stability score (HeLa Kyoto [4]; [5])	thermal stability score (HeLa Kyoto [4]; cell cycle stage: mitosis)
MASGAGGVGGGGGGKIRTRRCHQGPIKPYQQGRQQHQGILSRVTESVKNIVPGWLQRYFNKNEDVCSCSTDTSEVPRWPENKEDHLVYADEESSNITDGRITPEPAVSNTEEPSTTSTASNYPDVLTRPSLHRSHLNFSMLESPALHCQPSTSSAFPIGSSGFSLVKEIKDSTSQHDDDNISTTSGFSSRASDKDITVSKNTSLPPLWSPEAERSHSLSQHTATSSKKPAFNLSAFGTLSPSLGNSSILKTSQLGDSPFYPGKTTYGGAAAAVRQSKLRNTPYQAPVRRQMKAKQLSAQSYGVTSSTARRILQSLEKMSSPLADAKRIPSIVSSPLNSPLDRSGIDITDFQAKREKVDSQYPPVQRLMTPKPVSIATNRSVYFKPSLTPSGEFRKTNQRIDNKCSTGYEKNMTPGQNREQRESGFSYPNFSLPAANGLSSGVGGGGGKMRRERTRFVASKPLEEEEMEVPVLPKISLPITSSSLPTFNFSSPEITTSSPSPINSSQALTNKVQMTSPSSTGSPMFKFSSPIVKSTEANVLPPSSIGFTFSVPVAKTAELSGSSSTLEPIISSSAHHVTTVNSTNCKKTPPEDCEGPFRPAEILKEGSVLDILKSPGFASPKIDSVAAQPTATSPVVYTRPAISSFSSSGIGFGESLKAGSSWQCDTCLLQNKVTDNKCIACQAAKLSPRDTAKQTGIETPNKSGKTTLSASGTGFGDKFKPVIGTWDCDTCLVQNKPEAIKCVACETPKPGTCVKRALTLTVVSESAETMTASSSSCTVTTGTLGFGDKFKRPIGSWECSVCCVSNNAEDNKCVSCMSEKPGSSVPASSSSTVPVSLPSGGSLGLEKFKKPEGSWDCELCLVQNKADSTKCLACESAKPGTKSGFKGFDTSSSSSNSAASSSFKFGVSSSSSGPSQTLTSTGNFKFGDQGGFKIGVSSDSGSINPMSEGFKFSKPIGDFKFGVSSESKPEEVKKDSKNDNFKFGLSSGLSNPVSLTPFQFGVSNLGQEEKKEELPKSSSAGFSFGTGVINSTPAPANTIVTSENKSSFNLGTIETKSASVAPFTCKTSEAKKEEMPATKGGFSFGNVEPASLPSASVFVLGRTEEKQQEPVTSTSLVFGKKADNEEPKCQPVFSFGNSEQTKDENSSKSTFSFSMTKPSEKESEQPAKATFAFGAQTSTTADQGAAKPVFSFLNNSSSSSSTPATSAGGGIFGSSTSSSNPPVATFVFGQSSNPVSSSAFGNTAESSTSQSLLFSQDSKLATTSSTGTAVTPFVFGPGASSNNTTTSGFGFGATTTSSSAGSSFVFGTGPSAPSASPAFGANQTPTFGQSQGASQPNPPGFGSISSSTALFPTGSQPAPPTFGTVSSSSQPPVFGQQPSQSAFGSGTTPNSSSAFQFGSSTTNFNFTNNSPSGVFTFGANSSTPAASAQPSGSGGFPFNQSPAAFTVGSNGKNVFSSSGTSFSGRKIKTAVRRRK [NUP153]	-0.682	52.8	52.6	0.507	-5.41	-3.58
MEETMKLATMEDTVEYCLFLIPDESRDSDKHKEILQKYIERIITRFAPMLVPYIWQNQPFNLKYKPGKGGVPAHMFGVTKFGDNIEDEWFIVYVIKQITKEFPELVARIEDNDGEFLLIEAADFLPKWLDPENSTNRVFFCHGELCIIPAPRKSGAESWLPTTPPTIPQALNIITAHSEKILASESIRAAVNRRIRGYPEKIQASLHRAHCFLPAGIVAVLKQRPRLVAAAVQAFYLRDPIDLRACRVFKTFLPETRIMTSVTFTKCLYAQLVQQRFVPDRRSGYRLPPPSDPQYRAHELGMKLAHGFEILCSKCSPHFSDCKKSLVTASPLWASFLESLKKNDYFKGLIEGSAQYRERLEMAENYFQLSVDWPESSLAMSPGEEILTLLQTIPFDIEDLKKEAANLPPEDDDQWLDLSPDQLDQLLQEAVGKKESESVSKEEKEQNYDLTEVSESMKAFISKVSTHKGAELPREPSEAPITFDADSFLNYFDKILGPRPNESDSDDLDDEDFECLDSDDDLDFETHEPGEEASLKGTLDNLKSYMAQMDQELAHTCISKSFTTRNQVEPVSQTTDNNSDEEDSGTGESVMAPVDVDLNLVSNILESYSSQAGLAGPASNLLQSMGVQLPDNTDHRPTSKPTKN [ECD]	0.116	50.8	50	-0.113	0.346	0.595
MAQTLQMEIPNFGNSILECLNEQRLQGLYCDVSVVVKGHAFKAHRAVLAASSSYFRDLFNNSRSAVVELPAAVQPQSFQQILSFCYTGRLSMNVGDQFLLMYTAGFLQIQEIMEKGTEFFLKVSSPSCDSQGLHAEEAPSSEPQSPVAQTSGWPACSTPLPLVSRVKTEQQESDSVQCMPVAKRLWDSGQKEAGGGGNGSRKMAKFSTPDLAANRPHQPPPPQQAPVVAAAQPAVAAGAGQPAGGVAAAGGVVSGPSTSERTSPGTSSAYTSDSPGSYHNEEDEEEDGGEEGMDEQYRQICNMYTMYSMMNVGQTAEKVEALPEQVAPESRNRIRVRQDLASLPAELINQIGNRCHPKLYDEGDPSEKLELVTGTNVYITRAQLMNCHVSAGTRHKVLLRRLLASFFDRNTLANSCGTGIRSSTNDPRRKPLDSRVLHAVKYYCQNFAPNFKESEMNAIAADMCTNARRVVRKSWMPKVKVLKAEDDAYTTFISETGKIEPDMMGVEHGFETASHEGEAGPSAEALQ [NACC1]	0.142	47.6	49.4	-0.176	3.55	6.42
MPPAVGGPVGYTPPDGGWGWAVVIGAFISIGFSYAFPKSITVFFKEIEGIFHATTSEVSWISSIMLAVMYGGGPISSILVNKYGSRIVMIVGGCLSGCGLIAASFCNTVQQLYVCIGVIGGLGLAFNLNPALTMIGKYFYKRRPLANGLAMAGSPVFLCTLAPLNQVFFGIFGWRGSFLILGGLLLNCCVAGALMRPIGPKPTKAGKDKSKASLEKAGKSGVKKDLHDANTDLIGRHPKQEKRSVFQTINQFLDLTLFTHRGFLLYLSGNVIMFFGLFAPLVFLSSYGKSQHYSSEKSAFLLSILAFVDMVARPSMGLVANTKPIRPRIQYFFAASVVANGVCHMLAPLSTTYVGFCVYAGFFGFAFGWLSSVLFETLMDLVGPQRFSSAVGLVTIVECCPVLLGPPLLGRLNDMYGDYKYTYWACGVVLIISGIYLFIGMGINYRLLAKEQKANEQKKESKEEETSIDVAGKPNEVTKAAESPDQKDTDGGPKEEESPV [SLC16A1]	0.186	55	57	-0.115	-4.15	-10.4
GLUD1	0.197	57.5	57.2	-0.0663	2.33	-0.967
MSNTTVVPSTAGPGPSGGPGGGGGGGGGGGGTEVIQVTNVSPSASSEQMRTLFGFLGKIDELRLFPPDDSPLPVSSRVCFVKFHDPDSAVVAQHLTNTVFVDRALIVVPYAEGVIPDEAKALSLLAPANAVAGLLPGGGLLPTPNPLTQIGAVPLAALGAPTLDPALAALGLPGANLNSQSLAADQLLKLMSTVDPKLNHVAAGLVSPSLKSDTSSKEIEEAMKRVREAQSLISAAIEPDKKEEKRRHSRSRSRSRRRRTPSSSRHRRSRSRSRRRSHSKSRSRRRSKSPRRRRSHSRERGRRSRSTSKTRDKKKEDKEKKRSKTPPKSYSTARRSRSASRERRRRRSRSGTRSPKKPRSPKRKLSRSPSPRRHKKEKKKDKDKERSRDERERSTSKKKKSKDKEKDRERKSESDKDVKQVTRDYDEEEQGYDSEKEKKEEKKPIETGSPKTKECSVEKGTGDSLRESKVNGDDHHEEDMDMSD [SRSF11]	-0.739	49.7	50.4	0.175	1.04	3.54
MSCINLPTVLPGSPSKTRGQIQVILGPMFSGKSTELMRRVRRFQIAQYKCLVIKYAKDTRYSSSFCTHDRNTMEALPACLLRDVAQEALGVAVIGIDEGQFFPDIVEFCEAMANAGKTVIVAALDGTFQRKPFGAILNLVPLAESVVKLTAVCMECFREAAYTKRLGTEKEVEVIGGADKYHSVCRLCYFKKASGQPAGPDNKENCPVPGKPGEAVAARKLFAPQQILQCSPAN [TK1]	0.28	56.1	57.3	-0.138	-4.01	-1.09
MATKGGTVKAASGFNAMEDAQTLRKAMKGLGTDEDAIISVLAYRNTAQRQEIRTAYKSTIGRDLIDDLKSELSGNFEQVIVGMMTPTVLYDVQELRRAMKGAGTDEGCLIEILASRTPEEIRRISQTYQQQYGRSLEDDIRSDTSFMFQRVLVSLSAGGRDEGNYLDDALVRQDAQDLYEAGEKKWGTDEVKFLTVLCSRNRNHLLHVFDEYKRISQKDIEQSIKSETSGSFEDALLAIVKCMRNKSAYFAEKLYKSMKGLGTDDNTLIRVMVSRAEIDMLDIRAHFKRLYGKSLYSFIKGDTSGDYRKVLLVLCGGDD [ANXA4]	0.48	50.1	50.2	0.0251	5.77	4.03
MEATGTWALLLALALLLLLTLALSGTRARGHLPPGPTPLPLLGNLLQLRPGALYSGLMRLSKKYGPVFTIYLGPWRPVVVLVGQEAVREALGGQAEEFSGRGTVAMLEGTFDGHGVFFSNGERWRQLRKFTMLALRDLGMGKREGEELIQAEARCLVETFQGTEGRPFDPSLLLAQATSNVVCSLLFGLRFSYEDKEFQAVVRAAGGTLLGVSSQGGQTYEMFSWFLRPLPGPHKQLLHHVSTLAAFTVRQVQQHQGNLDASGPARDLVDAFLLKMAQEEQNPGTEFTNKNMLMTVIYLLFAGTMTVSTTVGYTLLLLMKYPHVQKWVREELNRELGAGQAPSLGDRTRLPYTDAVLHEAQRLLALVPMGIPRTLMRTTRFRGYTLPQGTEVFPLLGSILHDPNIFKHPEEFNPDRFLDADGRFRKHEAFLPFSLGKRVCLGEGLAKAELFLFFTTILQAFSLESPCPPDTLSLKPTVSGLFNIPPAFQLQVRPTDLHSTTQTR [CYP2S1]	-0.0959	57.4	57.4	-0.159	-1.27	0.83
SLC35E1	-0.14	51.3	52	-0.172	0.109	0.648
MAMLVLVPGRVMRPLGGQLWRFLPRGLEFWGPAEGTARVLLRQFCARQAEAWRASGRPGYCLGTRPLSTARPPPPWSQKGPGDSTRPSKPGPVSWKSLAITFAIGGALLAGMKHVKKEKAEKLEKERQRHIGKPLLGGPFSLTTHTGERKTDKDYLGQWLLIYFGFTHCPDVCPEELEKMIQVVDEIDSITTLPDLTPLFISIDPERDTKEAIANYVKEFSPKLVGLTGTREEVDQVARAYRVYYSPGPKDEDEDYIVDHTIIMYLIGPDGEFLDYFGQNKRKGEIAASIATHMRPYRKKS [SCO1]	0.47	49.8	51.2	-0.107	2.42	1.59
MSAEVETSEGVDESEKKNSGALEKENQMRMADLSELLKEGTKEAHDRAENTQFVKDFLKGNIKKELFKLATTALYFTYSALEEEMERNKDHPAFAPLYFPMELHRKEALTKDMEYFFGENWEEQVQCPKAAQKYVERIHYIGQNEPELLVAHAYTRYMGDLSGGQVLKKVAQRALKLPSTGEGTQFYLFENVDNAQQFKQLYRARMNALDLNMKTKERIVEEANKAFEYNMQIFNELDQAGSTLARETLEDGFPVHDGKGDMRKCPFYAAEQDKGALEGSSCPFRTAMAVLRKPSLQFILAAGVALAAGLLAWYYM [HMOX2]	0.427	49.4	51	0.0224	0.884	1.97
MASSSGNDDDLTIPRAAINKMIKETLPNVRVANDARELVVNCCTEFIHLISSEANEICNKSEKKTISPEHVIQALESLGFGSYISEVKEVLQECKTVALKRRKASSRLENLGIPEEELLRQQQELFAKARQQQAELAQQEWLQMQQAAQQAQLAAASASASNQAGSSQDEEDDDDI [DR1]	-0.174	58.2	52.7	0.91	-1.34	-0.438
